In the supplement of paper PMC11780869:

System: Bacillus subtilis
Test: cleaved RNA product abundance (RNA/gDNA barcode ratio) relative to median wild-type variant (ratio to wild type); higher = more accumulation of the downstream cleavage product
Conditions: cleavage site: cggR-gapA (positions -7 to +36 mutated)
Summary of the method: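 Cleaved product abundance is expressed as the RNA:gDNA barcode ratio per construct, scaled to the median construct carrying the unmutated site. The constructs were barcoded, mutagenized RNase Y cleavage-site windows in truncated aprE or tetM reporter mRNAs integrated into the B. subtilis chromosome. Cultures grew in LB at 37°C from OD600 0.0003 to 0.3 before cleaved RNA was gel-selected and barcode-sequenced.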

[1] = experiment (reporter, strain, medium): exp 4a: truncated aprE reporter, strain BJT201 with 2% xylose (RNase J1 expressed)
[2] = experiment (reporter, strain, medium): exp 2b: truncated aprE reporter, strain BJT200
[3] = experiment (reporter, strain, medium): exp 6: tetM reporter, strain 168

| Sequence | cleaved RNA product abundance [1] | cleaved RNA product abundance [2] | cleaved RNA product abundance [3] |
| --- | --- | --- | --- |
| ACAGACGAAGGAGCCGCAAAGAAGTTATTAAGGGAGGAATAATCCCTGAATATAAATATCTCTCACTTATTTAAA | 0.635 |  |  |
| ACAGACGAAGGAGCCGCAAAGAAGTTATTAAGGGAGGAATAATCCTTCAATATAAATATCTCTCACTTATTTAAA | 0.283 |  |  |
| ACAGACGAAGGAGCCGCAAAGAAGTTATTAAGGGAGGAATAATCTCTCAATATAAATATCTCTCACTTATTTAAA | 0.198 |  |  |
| ACAGACGAAGGAGCCGCAAAGAAGTTATTAAGGGAGGAATAATTCCTCAATATAAATATCTCTCACTTATTTAAA | 0.0856 |  |  |
| ACAGACGAAGGAGCCGCAAAGAAGTTATTAAGGGATAAAAAATCCATCAATATAAATATCTCTCACTTATTTAAA |  | 0.123 |  |
| ACAGACGAAGGAGCCGCAAAGAAGTTATTAAGGGATAAAAAATCCCTCAATATAAATATCTCTCACTTATTTAAA | 0.625 |  |  |
| ACAGACGAAGGAGCCGCAAAGAAGTTATTAAGGGATAAACAATCCCTCAATATAAATATCTCTCACTTATTTAAA | 0.798 | 0.787 |  |
| ACAGACGAAGGAGCCGCAAAGAAGTTATTAAGGGATAAAGAATCCCTCAATATAAATATCTCTCACTTATTTAAA | 0.629 |  |  |
| ACAGACGAAGGAGCCGCAAAGAAGTTATTAAGGGATAAATAAACCCTCAATATAAATATCTCTCACTTATTTAAA | 0.445 |  |  |
| ACAGACGAAGGAGCCGCAAAGAAGTTATTAAGGGATAAATAACCCCTCAATATAAATATCTCTCACTTATTTAAA | 0.499 | 0.423 |  |
| ACAGACGAAGGAGCCGCAAAGAAGTTATTAAGGGATAAATAAGCCCTCAATATAAATATCTCTCACTTATTTAAA | 0.821 |  |  |
| ACAGACGAAGGAGCCGCAAAGAAGTTATTAAGGGATAAATAATACCTCAATATAAATATCTCTCACTTATTTAAA | 0.0789 | 0.117 |  |
| ACAGACGAAGGAGCCGCAAAGAAGTTATTAAGGGATAAATAATCACTCAATATAAATATCTCTCACTTATTTAAA | 0.104 | 0.0853 |  |
| ACAGACGAAGGAGCCGCAAAGAAGTTATTAAGGGATAAATAATCCATCAATATAAATATCTCTCACTTATTTAAA | 0.195 |  |  |
| ACAGACGAAGGAGCCGCAAAGAAGTTATTAAGGGATAAATAATCCCACAATATAAATATCTCTCACTTATTTAAA | 0.356 | 0.253 |  |
| ACAGACGAAGGAGCCGCAAAGAAGTTATTAAGGGATAAATAATCCCCCAATATAAATATCTCTCACTTATTTAAA | 0.22 |  |  |
| ACAGACGAAGGAGCCGCAAAGAAGTTATTAAGGGATAAATAATCCCTAAATATAAATATCTCTCACTTATTTAAA | 0.734 | 0.597 |  |
| ACAGACGAAGGAGCCGCAAAGAAGTTATTAAGGGATAAATAATCCCTCAAAATAAATATCTCTCACTTATTTAAA | 0.241 | 0.293 |  |
| ACAGACGAAGGAGCCGCAAAGAAGTTATTAAGGGATAAATAATCCCTCAACATAAATATCTCTCACTTATTTAAA | 0.251 |  |  |
| ACAGACGAAGGAGCCGCAAAGAAGTTATTAAGGGATAAATAATCCCTCAAGATAAATATCTCTCACTTATTTAAA | 0.29 | 0.18 |  |
| ACAGACGAAGGAGCCGCAAAGAAGTTATTAAGGGATAAATAATCCCTCAATAAAAATATCTCTCACTTATTTAAA |  |  | 0.148 |
| ACAGACGAAGGAGCCGCAAAGAAGTTATTAAGGGATAAATAATCCCTCAATATAAAAATCTCTCACTTATTTAAA | 0.943 |  |  |
| ACAGACGAAGGAGCCGCAAAGAAGTTATTAAGGGATAAATAATCCCTCAATATAAAGATCTCTCACTTATTTAAA | 0.505 | 0.482 |  |
| ACAGACGAAGGAGCCGCAAAGAAGTTATTAAGGGATAAATAATCCCTCAATATAAATAACTCTCACTTATTTAAA | 0.823 |  |  |
| ACAGACGAAGGAGCCGCAAAGAAGTTATTAAGGGATAAATAATCCCTCAATATAAATAGCTCTCACTTATTTAAA | 0.553 |  |  |
| ACAGACGAAGGAGCCGCAAAGAAGTTATTAAGGGATAAATAATCCCTCAATATAAATATCTCTCACTTATTTAAA | 0.872 | 0.898 | 0.954 |
| ACAGACGAAGGAGCCGCAAAGAAGTTATTAAGGGATAAATAATCCCTCAATATAAATCTCTCTCACTTATTTAAA | 0.65 | 0.559 |  |

| Sequence | cleaved RNA product abundance [1] | cleaved RNA product abundance [2] | cleaved RNA product abundance [3] |
| --- | --- | --- | --- |
| ACAGACGAAGGAGCCGCAAAGAAGTTATTAAGGGATAAATAATCCCTCAATATAAATGTCTCTCACTTATTTAAA | 0.539 | 0.46 |  |
| ACAGACGAAGGAGCCGCAAAGAAGTTATTAAGGGATAAATAATCCCTCAATATAAATTTCTCTCACTTATTTAAA | 0.368 |  |  |
| ACAGACGAAGGAGCCGCAAAGAAGTTATTAAGGGATAAATAATCCCTCAATATAACTATCTCTCACTTATTTAAA | 0.156 |  |  |
| ACAGACGAAGGAGCCGCAAAGAAGTTATTAAGGGATAAATAATCCCTCAATATAATTATCTCTCACTTATTTAAA | 0.532 | 0.507 |  |
| ACAGACGAAGGAGCCGCAAAGAAGTTATTAAGGGATAAATAATCCCTCAATATACATATCTCTCACTTATTTAAA | 0.699 |  |  |
| ACAGACGAAGGAGCCGCAAAGAAGTTATTAAGGGATAAATAATCCCTCAATATAGATATCTCTCACTTATTTAAA | 1.02 | 0.638 |  |
| ACAGACGAAGGAGCCGCAAAGAAGTTATTAAGGGATAAATAATCCCTCAATATATATATCTCTCACTTATTTAAA | 0.916 |  |  |
| ACAGACGAAGGAGCCGCAAAGAAGTTATTAAGGGATAAATAATCCCTCAATTTAAATATCTCTCACTTATTTAAA | 0.167 |  |  |
| ACAGACGAAGGAGCCGCAAAGAAGTTATTAAGGGATAAATAATCCCTCACTATAAATATCTCTCACTTATTTAAA | 0.193 | 0.247 |  |
| ACAGACGAAGGAGCCGCAAAGAAGTTATTAAGGGATAAATAATCCCTCAGTATAAATATCTCTCACTTATTTAAA | 0.242 |  |  |
| ACAGACGAAGGAGCCGCAAAGAAGTTATTAAGGGATAAATAATCCCTCATTATAAATATCTCTCACTTATTTAAA | 0.267 |  |  |
| ACAGACGAAGGAGCCGCAAAGAAGTTATTAAGGGATAAATAATCCCTCCATATAAATATCTCTCACTTATTTAAA | 0.234 | 0.26 |  |
| ACAGACGAAGGAGCCGCAAAGAAGTTATTAAGGGATAAATAATCCCTCGATATAAATATCTCTCACTTATTTAAA | 0.433 |  |  |
| ACAGACGAAGGAGCCGCAAAGAAGTTATTAAGGGATAAATAATCCCTCTATATAAATATCTCTCACTTATTTAAA | 0.326 | 0.396 |  |
| ACAGACGAAGGAGCCGCAAAGAAGTTATTAAGGGATAAATAATCCCTGAATATAAATATCTCTCACTTATTTAAA | 0.734 |  |  |
| ACAGACGAAGGAGCCGCAAAGAAGTTATTAAGGGATAAATAATCCCTTAATATAAATATCTCTCACTTATTTAAA | 0.48 | 0.71 |  |
| ACAGACGAAGGAGCCGCAAAGAAGTTATTAAGGGATAAATAATCCGTCAATATAAATATCTCTCACTTATTTAAA | 0.166 | 0.132 |  |
| ACAGACGAAGGAGCCGCAAAGAAGTTATTAAGGGATAAATAATCCTTCAATATAAATATCTCTCACTTATTTAAA | 0.338 | 0.303 |  |
| ACAGACGAAGGAGCCGCAAAGAAGTTATTAAGGGATAAATAATCGCTCAATATAAATATCTCTCACTTATTTAAA | 0.0974 |  |  |
| ACAGACGAAGGAGCCGCAAAGAAGTTATTAAGGGATAAATAATCTCTCAATATAAATATCTCTCACTTATTTAAA | 0.355 |  |  |
| ACAGACGAAGGAGCCGCAAAGAAGTTATTAAGGGATAAATAATGCCTCAATATAAATATCTCTCACTTATTTAAA | 0.0991 |  |  |
| ACAGACGAAGGAGCCGCAAAGAAGTTATTAAGGGATAAATAATTCCTCAATATAAATATCTCTCACTTATTTAAA | 0.294 |  |  |
| ACAGACGAAGGAGCCGCAAAGAAGTTATTAAGGGATAAATACTCCCTCAATATAAATATCTCTCACTTATTTAAA | 0.534 | 0.674 |  |
| ACAGACGAAGGAGCCGCAAAGAAGTTATTAAGGGATAAATATTCCCTCAATATAAATATCTCTCACTTATTTAAA | 1.01 | 0.755 |  |
| ACAGACGAAGGAGCCGCAAAGAAGTTATTAAGGGATAAATCATCCCTCAATATAAATATCTCTCACTTATTTAAA | 0.818 |  |  |
| ACAGACGAAGGAGCCGCAAAGAAGTTATTAAGGGATAAATGATCCCTCAATATAAATATCTCTCACTTATTTAAA | 0.455 |  |  |
